Data reported in patent publication US20180066029A1.

What was measured:
Assay in all cases: CIDOP with next-generation sequencing, recovery of peaks
[1] = molecular target: nucleosomes having both H3K9me3 and H3K36me3 (H3K36me2/3)
[2] = molecular target: nucleosomes having neither H3K9me3 nor H3K36me3
[3] = molecular target: nucleosomes having only H3K9me3
[4] = molecular target: nucleosomes having only H3K36me3

artificial protein PM (PWWP domain of Dnmt3a, naturally occurring linker of 21 amino acids, chromodomain of MPP8, N-terminal GST tag) (designed binder)
percent of genome regions of this state detected by PM [1]: 80.9% | percent of genome regions of this state isolated by PM [2]: 0.04% | percent of genome regions of this state isolated by PM [3]: 6.2% | percent of genome regions of this state isolated by PM [4]: 6.66%
